B1: Glycosyltransferase (UGT) (SEQ ID NO: 48) Barbarea vulgaris (protein, listed as Barbarea vulgaris)
chain: MKSELVFIPYPGIGHLRPTVEVAKLLVDREPRLSISVFILPFISGDEVGASDYISALSAASNDRLRYKVIFTGDQETAEPTKLTLHIENQVPKVRTAVAKLIDEYSKLLDSPKIVGFVLDMFCTSMIDVANEFELPSYMFFTSSAGILAVSFHVQVLYDEKKCNFSETMFEDSEAELILPSLTRPYPVKSLPYALFRTEMLIMHVNLARRFRELKGILVNTVDELEPHALKFLLSGITPPAYPVGPLLHLESNQDDESEDEKRSEIIMWLDEQPASSVVFLCFGSMGGFSEEQTREIAIALERSGHRFLWSLRRESPNIDKELPGEFTNLEEVLPEGFFDRTKGIGKVIGWAPQVAVLENPAIGGFVTHGGWNSVLESLWFGVPTAMWPLYAEQKFNAFVMVEELGLAVEIKKYWRGDLLLGRSAMEIVTADEIERGITCLMQQDSDVRKRVKEMKGKCHVALMDGGSSTLALDKFVEDVTKNI
B2: Glycosyltransferase (UGT) (SEQ ID NO: 46) Cicer arietinum (protein, listed as Cicer arietinum)
chain: MKKIEVVFIPSPGVGHLISTLEFANLLINRNNRLNITVLVINFPKTVEKQTNYSLTESENLHVINLPQTTTHVPSTSDVGNSISALVETQKSNVKQAVSNLTGTLAAFVVDMFCTTMIDVANELGVPSLVFFTSGVAFLGLMLHLHTIWEQQDTELLLQQDELDIPSFANPVATNTLPTLVLRKEWESSFIKYGNGLKKASGIIVNSFHELEPHAVRSFLEDPTLRDLPIYPVGPILNPKSNVDSDDVIKWLDDQPPSSVVFLCFGSMGTFDEEQVREIALAIERSGVRFLWSLRKPQPQGTMVPPSDYTLSQMLEVLPEGFLDRTANIGRVIGWAPQVQVLAHQATGGFVSHCGWNSTLESIYYGVPIATWPLFAEQQTNAFELVRELKIAVEIALDYRLEFDIGRNYLLDADKIERGIRGVLDKDGEVRKKVKEMSQKSRNVLLEGGSSYTYLGQLIDYITNQV
B3: Glycosyltransferase (UGT) (SEQ ID NO: 44) Lycium barbarum (protein)
chain: MGHLVSTVEMAKQLVDREDQLSITVLIMTLPTETKIPSYTKSLSSNYTSRIRLLELTQPETSVNMGSATHPMKFMSEFITSYKGRVKDAVADMFSSLSSVKLAGFVIDMFCTAMIDVANDFGVPSYLFYTSGAAMLGLQFHFQSLISQNVLSYLDSESEVLIPTYINPVPVKFLPGLILDNDEYSIMFLDLAGRFKETKGIMVNTFVEVESHALKALSDDEKIPPIYPVGPILNLGGGNDGHGEEYDSIMKWLDGQPNSSVVFLCFGSMGSFEEDQVKEVANALESSGYQFLWSLRQPPPKDKLQFPSEFENLEEVLPEGFLQRTKGRGKMIGWAPQVAILSHPSVGGFVSHCGWNSTLESVRSGVPMATWPMYAEQQSNAFQLVKDLEMAVEIKMDYRKDFMTINQPVLVKAEEIGNGIRQLMDLVNKIRAKVRKMKEKSEAAIMEGGSSYVALGNFVETVMKS
modifications: Depcits the amino acid sequence of Glycosyltransferase (UGT of Lycium barbarum)
B4: Cinnamte 4 hydroxylase 4 coumarate coenzyme ligase fusion (C4H4CL) (SEQ ID NO: 12) Azospirillum sp. (protein)
chain: MDLLLLEKTLLALFIAATIAITISKLRGKRFKLPPGPIPVPVFGNWLQVGDDLNHRNLTDLAKRFGDIFLLRMGQRNLVVVSSPELAKEVLHTQGVEFGSRTRNVVFDIFTGKGQDMVFTVYGTLAEMRRIMTVPFFTNKVVQQYRFGWEFEAQSVVDDVKKNPEACSSGIVLRRRLQLMMYNIMYRIMFDRRFESEEDPLFVKLKALNGERSRLAQSFEYNYGDFIPILRPFLKGYLKLCKEVKDRRLQLFKDYFVDERKKLGSTKSTTNEGLKCAIDHILDAQQKGEINDDNVLYIVENINVAAIETTLWSIEWGIAELVNHQKIQNKVREEIDRVLGPGHQVTEPDLQKLPYLQAVIKETLRLRMAIPLLVPHMNLHDAKLSGFDIPAESKILVNAWWLANNPAQWKKPEEFRPERFLEEESHVEANGNDFRYLPFGVGRRSCPGIILALPILGITLGRLVQNFELLPPPGQSKIDTAEKGGQFSLHILKHSTIVCKPRSFNGGGGSGGGGSGGGGSMTIQRWWRNRESLNRVLCDLLAGEFARLRPGGSPPAHPHRWPETLPLGPDGVGADSLDLLQLAAALNEALHLHRSGIEDYLLMHRTVGDWLDVCEAALGRFDGALSFRTSGSTGEGKRCEHPLAALEEEADALAALLSGGAEAPRRVVSVVPAHHIYGFLFTVLLPDRLAVPVVDGRGTSPGGLAARLGPGDLVVAHPDWWGALLRSGAALPDGVTGTSSTAPCPPDTARGVRGVGLARLVEVFGSSETAGLGWRESPDAPFRPFPWWRFGDDGRVTRRLADGTVLSATLQDRLSHDEEGFRPSGRLDTVVQVGGVNVSLAGVQAHLAGHPDVEAAAVRLMRPEEGTRLKAFIVPARTAPPREELYRRLTDWIEATLPAPHRPRALAFGPALPVNGMGKPCDWPLATCR
modifications: Depicts the amino acid sequence of the enzyme Cinnamte 4 hydroxylase 4 coumarate coenzyme ligase fusion (C4H4CL)
B5: hydroxycinnamoyl-CoA: quinate hydroxycinnamoyltransferase p-coumaroyl quinate 3′-hydroxylase fusion (HCTC3H) (SEQ ID NO: 14) Coffea canephora (protein, listed as Coffea canephora)
chain: MKIEVKESTMVRPAQETPGRNLWNSNVDLVVPNFHTPSVYFYRPTGSSNFFDAKVLKDALSRALVPFYPMAGRLKRDEDGRIEIECNGEGVLFVEAESDGVVDDFGDFAPTLELRRLIPAVDYSQGISSYALLVLQVTYFKCGGVSLGVGMRHHAADGFSGLHFINSWSDMARGLDVTLPPFIDRTLLRARDPPQPQFQHIEYQPPPALKVSPQTAKSDSVPETAVSIFKLTREQISALKAKSKEDGNTISYSSYEMLAGHVWRCACKARGLEVDQGTKLYIATDGRARLRPSLPPGYFGNVIFTATPIAIAGDLEFKPVWYAASKIHDALARMDNDYLRSALDYLELQPDLKALVRGAHTFKCPNLGITSWVRLPIHDADFGWGRPIFMGPGGIAYEGLSFILPSPTNDGSMSVAISLQGEHMKLFQSFLYDIGGGGSGGGGSGGGGSMALLLILLPVAFIFLAYSLYERLRFKLPPGPRPKPVVGNIYDIKPVRFKCYAEWSKLYGPIFSVYFGSQLNTVVNTAELAKEVLKDNDQQLADRYRSRPSARMSRNGQDLIWADYGPHYVKVRKLCNLELFTPKRLEGLRPLREDEVTAMVDSIFKDCTKPENKGKSLLMRNYLGSVAFNNITRLTFGKRFMNSEGVVDEQGQEFKGIVSNGIRIGAKLSVADHIPWLRWMFVGENEDLDKHNARRDKLTRMIMEEHTLARQKSGNTKQHFVDALLTLQKQYELSDDTVIGLLWDMITAGMDTTTISVEWAMAELVKNPRVQQKAQEELDRVIGSDRIMTEADFAKLPYLQCVAKEALRLHPPTPLMLPHRANANVKIGGYDIPKGSIVHVNVWAIARDPAAWKNPLEFRPERFLEEDVDIKGHDYRLLPFGAGRRICPGAQLALNLVTSMLGHLLHHFTWSPPPGVRPEEIDLEESPGTVTYMRTPLQAVATPRLPAHLYNRVPVE
B6: 2-Deoxy-d-ribose-5-phosphate aldolase (DERA) (SEQ ID NO: 50) Desulfatibacillum aliphaticivorans (protein)
chain: MTGPKICVVGACNIDLISYVERLPVLGETLHGKKFSMGFGGKGANQAVMAAKLGGEVAMVGKLGRDVFGENTLANFKKLGVNVSHVHFTEEAFSGVAPIAVDDNGANSIIIVTGASDLLSAEEIRAAENAIAKSKVLVCQLEIPMEQNLEALRIARKNNVPTIFNPAPARPGLPDELYQLSDIFCPNESETEILTGMPVETMEQAEQAAKALLERGPKTVILTLGERGCLLVDANGARHIPTRKVEAIDTTGAGDCFVGSLAFFLAAGKSLEDAINRANKIAAVSVCGQGTQSSFPGASELDPEILSDIQPAESQAPAMSAKDLAQYIDHTLLKPEAPLSAFDKICEEAILHQFRSVCVNSCKISYIAKKLKGTGVDACAVIGFPLGAMSTAAKAFEAKQAVMDGAAELDMVINVGALKSGDFDAVFDDIKAVRDAAPLPIILKVIIETCLLTDEEKARACRIAKAADADFVKTSTGFSTGGATLEDIALMRDTVGPYMGVKASGGIKDAKTAIAMIEAGATRIGAGAGVEIVSGLQSDADGSY
modifications: Depicts the amino acid sequence of 2-Deoxy-d- ribose-5-phosphate aldolase (DERA) of Desulfatibacillum aliphaticivorans

System: pathway specific substrates
Assay: Enzyme functionality of pathway enzyme homologs and fusion constructs in lysed E. coli cell extracts, product by HPLC
Format: biochemical, E. coli BL21
Details: recombinant E. coli BL21 clone, lysed cell extract
Protocol: As per one of the possible implementations of the present disclosure, two proteins—cinnamate-4-hydroxylate (C4H) and 4-coumaroyl CoA-ligase (4CL) were expressed as one fusion protein. Also, other two proteins which were expressed as one fusion protein were hydroxycinnamoyl-CoA quinate hydroxycinnamoyltransferase (HCT) and p-coumaroyl quinate 3′-hydroxylase (HCTC3H). The fusion gene and the corresponding fusion protein was prepared using the following method. […] The enzyme fusion constructs were made for the selected genes (Table 5). Pathway genes and the fusion constructs were individually cloned in E. coli expression vector pET28+ under T7 promoter and transformed in E. coli BL21 cells. Recombinant bacterial cells were induced with IPTG and enzyme functionality was tested with pathway specific substrates (Table 5) using lysed E. coli cell extracts. HPLC analysis was carried out to quantify the product formation and in turn shortlisting of efficient enzymes for functional pathway assembly towards Etoposide in E. coli.
The E. coli transformants were grown overnight at 37° C. in 1 ml of M9 minimal media containing ampicillin (100 mg/1), in 96-well format. The next day, 150 μl of each culture was inoculated into 3 ml M9 minimal media containing ampicillin (100 mg/1), IPTG 0.1 mM in 24-well format, and incubated at 30° C. and 200 rpm for ˜20 hours. The following day, cells were spun down and pellets were resuspended in 100 μl of lysis buffer containing 10 mM Tris-HCl pH 8, 5 mM MgCl2, 1 mM CaCl2) and complete mini protease inhibitor EDTA-free (3 tablets/100 ml) (Hoffmann-La Roche, Basel, Switzerland) and frozen at −80° C. for at least 15 minutes to promote cell lysis. Pellets were thawed at room temperature and 50 μl of DNase mix (1 μl of 1.4 mg/ml DNase in H2O (˜80000 u/ml), 1.2 μl of MgCl2 500 mM and 47.8 μl of 4×PBS buffer solution) was added to each well. Plates were shaken at 500 rpm for 5 min at room temperature to allow degradation of genomic DNA. Plates were spun down at 4000 rpm for 30 min at 4° C. and six μl of the lysates were used in in vitro using appropriate substrates for enzymes as per Table 6. In each case, the resulting compounds were measured by HPLC. Results were analysed in comparison with the lysates expressing the corresponding controls (the empty plasmid). […]

[1] = substrate tested: Desmethylepipodophyllotoxin

Molecule	Enzyme activity in terms of product formation (in %) [1] [%]	also measured
B1	43	
B2	97	
B3	67	
B4		Enzyme activity in terms of product formation (in %) (substrate tested: Cinnamate): 97%
B5		Enzyme activity in terms of product formation (in %) (substrate tested: Coumaroyl coA): 89%
B6		Enzyme activity in terms of product formation (in %) (substrate tested: Desmethylepipodophyllotoxin glucopyranoside): 83%
